Results: paper PMC10320493

Experiments:
[1] = biological target: human δ-opioid receptor (pcDNA3.1-human DOR) (human) (UniProt P41143)
[2] = biological target: human μ-opioid receptor (pcDNA3.1-human MOR) (human) (UniProt P35372)
[3] = biological target: human μ-opioid receptor (pcDNA3.1-human MOR) (human) (UniProt P35372); remark: listed apart in the source
[4] = biological target: human μ-opioid receptor (pcDNA3.1-human MOR) (human) (UniProt P35372); test: radioligand binding

Gi/o-mediated cAMP inhibition (GloSensor, HEKT cells), pEC50 [1] | Gi/o-mediated cAMP inhibition (GloSensor, HEKT cells), pEC50 [2] | maximal net BRET in the G protein (GoA) dissociation assay [3] | Kd [4] [nM] | pKd [4] | Substance
9.69 |  |  |  |  | DADLE (peptide)
 | 8.65 | 0.15 | 4.37 | 8.36 | [D-Ala2, N-MePhe4, Gly-ol]-enkephalin (peptide)
